Assay results taken from the nanobody polyreactivity screen of Harvey et al. (2022).

Assay: yeast display, Sf9 membrane polyspecificity reagent, FACS + sequencing; frameworks hold sequencing errors
Summary of the method: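 Galactose induction of a Saccharomyces cerevisiae BJ5465 synthetic nanobody display library ran 36–48 hours. The cells were then stained for 1 hour at 4 °C with 10% biotinylated, detergent-solubilized Sf9 membrane reagent, pulled down on streptavidin microbeads and FACS-sorted into low and high (top ~1%) gates on expression and reagent-binding fluorescence. Labels for polyreactivity follow the gate of origin.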

Sequence	polyreactivity (PSR sort gate)
QVQLVESGGGLVQAGGSLRLSCAASGSIFAHYTMGWYRQAPGKERELVAVISRSGARTYYADSVKGRFTISRDNAKNTVYLQMNSLKPEDTAVYYCAATWGSVQKGTYYYWGQGTQVTVSS	low polyreactivity
KVQLVESGGGLVQPGGSLRLSCASSGQTFTTNEMGWNRQAHGKERDLLAAISRRGSRTYYADSVKGRFTISRDNAKNSVFLQMNSLKPEDTAVYYCNALTGSFKTYSFDYWGQGTQVTVSS	high polyreactivity
QVQLVESGGCLVQAGGSLRLSCAASGSTSDIYARGWYSPAPGKEREFVAARSLTGGTTYYAASVKGRFTISCDNAKNTVYLQMNSLKPEDTAVYYCNADVGWWGYDDDYWGQGTQVTVSS	high polyreactivity
QVQLVESGGGLVQAGGSLRLSCAASGIIFRTYDMGWYRQAPGKERELVANISWSAGSTYYADSVKGRFTISRDNAKNTVYLQMNSLKPEDTAVYFCNAVRLYPSSYDYWGQGTQVTVSS	low polyreactivity
QVQLVESGGGLVQAGGSLRLSCAASGLIFYRYTMGWYRQAPGKERELVAAIDDSDTSTYYADSVKGRFTISRDNAKNTVYLQMNSLKPEDTAVYYCAAVPLAPYAVRSRLDFDYWGQGTQVTVSS	low polyreactivity
QVQLVESGGGLVQAGGSLRLSCAASGSIFSYYAMGWYRQAPGKERELVAANDWNVDSTYYADSVKGRFTISRDNAKNTVYLQLNSLNPEDTAVYYCNAEVYYFYTRYTWYLYDYWRQGTQVTVSS	low polyreactivity
QVQLVESGGGLVQAGGSLRLSCDASGSTFRGNAMGWYRQAPGKEREFVASISRRGGRTNYADSVKGRFTISRDNAKNTVYLQMNSVKPEDTAVYYCAATTVPLGDYWGLGTQVTVSS	high polyreactivity
QVQLVESGGGLVQAGGSLRLSCAASGGTFRVYAMGWYRQAPGKERELVAAISSGGSTNYADSVKGRFTISRDNAKNTVYLQMNSLKPEDTAVYYCNAKYRYRFARSPIYYYWGQGTQVTVSS	low polyreactivity
QLQHVETGGGLVQAGGSLRLSCAASGRIFIRNHMGWYRQAPGKERELVAVITRSGGRTYYADSVKGRFTISRDNANNTVYLQMNRVKPEDTAVYYCAKRQAFKQATYDYWGQGTQVTVSS	low polyreactivity
QVQLVESGGGLVQAGGSLRLICAASGSIFDYYDMGWYRQAPGKERELVAANNWSGGITYYADSVKGRFTISRDYAKNTVYLQMNSLKPEDTEVYFCAADWYQWVYSSSITSFDYWGQGTQVTVSS	low polyreactivity
QVQLVESGGGLAQAGGSLRLSCAASGRTFRRYAMGWYRQAPGKEREMVAAITSGGDTYYADSVKGRFTISRDNAKNTVYLQMNSLKPEDTAVYYCNAASVTRRTGIRAVDFDYWGQGTQVTVSS	high polyreactivity
QVQLVESGGGLVQAGGSLRLSCASSGSIIVVYGMGWYRQAPGKERELVAAISGGITNYADSVKGRFTISRDNAMNTVYLQMNILIPEDTAVYYCATVDGAYQYTYDYWGQGTQVTVSS	low polyreactivity
QFQLVESGGGLVQAGGSLRLSCAATGSIIGANAMGWYRQAPGKERELVAAISTRGGRTYYADSVKGRFTISRDNAKNTVYLQMNSLKPEDTAVYYCATSGGRPYKYEYWGQGTQVTVSS	high polyreactivity
QVQLVESGGGLVQAGGSLRLSCAASGYIFGFYAKGWYRQAPGKERELVARITYSGTSTYYADSVKGRFTISRDNAKNTVYLQMNSLKPEDTAVYYCAKRNKRSAWDSDEYDYWGQGTQVTVSS	low polyreactivity
QVQLVESGGGLVQAGGSLGLSCAASGRTFANNAMGWYRQAPGKERELVARISNSGSTNYADSVKGRFTISRDNAKNTVYLQMNSLKPEDTAVYDCAARIVRLYSRYDYWGQGTQETVSS	low polyreactivity
QVQLVESGGGLVQAGGSLRLSCAASGRTSSYTMGWYRQAPGKERELVAAITRRGVSTYYADSLKGRFTISRDNAKNTVYFQMNSLKAEDTAVYYCAVGPRASFGYGYWGQGTQVTVSS	high polyreactivity
QVQLGESGGALVQAGGSLRLSCAASGSTIYAYDMGWYRPAPGKERELVAAISSGGSTYYADSVKGRFTFSRDNAKNTVYLQMNCLKPEDTAVYYCATEYTYELEASEPSDYDYWGQGTQVTVSS	low polyreactivity
QVQLVESGGGLGQAGGSLRVSCAASGGTLYYYAMGWYRQARGKERELVADITNSGSTNYADAVKGRFTISRDNAKNTVYLQMNSLKPEDTAVYSCAAAFSRRYDWGQGTQVTVSS	high polyreactivity
QDQLVDSGGGLVQAGGSLSLSCAASGRTSGRYAMGWYRQAPGKERELVAGITSSGGSTYYADSVKGRFTISRDNAKNTVYLQMNSLKPEDTAVYYCAKVWGAKGKTYRMYSWGKGTQVTVSS	high polyreactivity
QVQLVESGGGLVQAGGSLRLSCAASGRTFPSYTMGWYRQAPGKERELVAPNDGGGDTYYADSVKGRFTISRDNAKNSVYLQMKSLKPEDTAVYYCRDWYPSYWYYYYAEYDYWGQGTQVTVSS	high polyreactivity
QVQLVESGGCLVQAGGSLRLSCAASGRTFRSNAMGWYRQAPGKERELVAAITIGGSTTYADSVKGRFTISRDNAKNTVYLQMISLKREDSAVYYCKARDYYPYDYWGKGTQVTVSS	high polyreactivity
QVQLVESGGGLVQAGGSLRLSCAASGFTIYGYVMGWYRQAPGKERELVAAISWSGGSTYYADSVKGRFTISRDNAKNTVYLQMNSLKPEDTAVYYCAAEGWSDYTSRLYDYWGQGTQVTVSS	low polyreactivity

Sequence	polyreactivity (PSR sort gate)
QVQLVESGGGLVQAGGILRLSCDASGLIFGPYTMGWYRQAPGKERELVAAISYGGVSTYYADSVKGRFTISRDNAKNTVYLQMNSLKPEDTAVYYCARGDSTRVIRPSAREYDYWGQGTQVTVSS	low polyreactivity
QVQLVESGGGLVQAGGSLRLSCAASGLIFYAYAMGWYRQAPGKERELVAAISYSGGSTYYADSVKGRFTISRDNAKNTVYLQMNSLKPEDTAVYYCAASYISVYWRWYEYWGQGTQVTVSS	high polyreactivity
QFQLVESGGGLVQAGGSLRLSCAASGRILYPNTMGWYRQAPGKEREVVAAISGSGSRTYYADSVKGRFTISRDNAKNNVYLQMNSLKPEDTAVYYCADRGDGTVGVSSPGKRRHYYWGQGTQVTVSS	high polyreactivity
QDQLVESGGGLVQAGGSLRLSCAASGLTFQYNAMGWYRQAPRKERELVATISQSGGSTYYADSVKGRFTISRDNAKNTVYLQMNSLKREDTAVYYCAAYRAWTWRIRYDYWGQGTQVTVSS	low polyreactivity
QVQLVESGGGLVQAGGSLRLICAASGLTFHRYAMGWYRQAPGKERELVAAINYSGGRTYYADSVKGRFTISRDNAKNTVYLQMNSLKPEDTAVYYCAAPRASGYYWGQGTQVTVSS	high polyreactivity
QVQLVESGGGLVQAGGSLRLSCAASGFTFPFYTMGWYRQAPGKERELVAAISRGGSTNYADSVKGRFTISRDNAKNTVYLQMNSLKPEDTAVSYCNKRYYRDLIGYYWGQGTQVTVSS	high polyreactivity
QVQLVESGGGLVQAGGSLRLSCAASGSTFDINAMGWYRQAPGKERELVAAINSDARTNYADSVKGRFTISRDNAKNTVYLLMNSLKPEDTAVYYCATDTSHSTYQYGYWGQGTQVSVSS	low polyreactivity
QVQLVESGGGLVQAGGSLRLSCAASGFIFSRYAMGWYRQAPGKEREFVAANSWSGGRTYYADSVKGRFTISRDNAKNTVYLQMNSLKPEDTAVYFCAARGYYPARHGTGGYWGQGTQVTVSS	high polyreactivity
QVQLVESGGGLVQAGGSLRLSCAASGRIFSGYAMGWYRQAPGKEREFVAAITSSGRTKYADSVKGRFTISRDNAKNTVYLQMNSLKPEDTAVYYCAARPSQWNYDYRRVYYWGQGTQVTVSS	high polyreactivity
QVQLVESGGGLVQAGGSLRLICAASGITLWTYAMGWYRQAPGKERELVAAIRRGGSTYYADSVKGRFTISRDNAKYTVFLQMNSLKPEDTAVYYCNTVSFYPYYYWGQGTQVTVSS	high polyreactivity
QVQLEESGGGIVQAGGSLRLSCAASGRIFGYYAMGWYRQAPGKERELVASIRRGTRTNYADSVKGRFTISRDNAKNTVYLQMNSLKPEDTAVYYCAATRFQFTTTPWYDYWGQGTQVTVSS	high polyreactivity
QVQLVESGGGLVQAGGSLRLSCAASGSIFYYYAMGWYRQAPGKERELVASITSGARTNYADSVKGRFTISRDNAKNTVYLQMNILKPEDTAVFYCAADIKWSIRRAYDYWGQGTQVTVSS	high polyreactivity
QVQLVESGGGLVQAGGSLRLSCAASGRIFLGNAMGWYRQAPGKERELVAAITNGGGSTYYADSVKGRFTISRDNAKNTVYLQMNSLKPEDTAVYYCAAPVRQSSYTRYDSWGQGTQVTVSS	high polyreactivity
QVQLVESGGGLVQAGGSLRLSCAASGRTFPSNVMGRYIQAHGKERELVAGITWRGGSTYYADSVKGRFTISRDNAKYTVYLQINSLKPEDTAVYYCAVRTQYRRYEYWGHGTQVTVSS	high polyreactivity
QVQLVESGGGLVQAGGSLRLSCAASGRIFSRYTMGGYRQAPGKERELVAANSYRGGSTYYADSVKGRFTISRDNAKNTVYLQMNSLKPEDTAVYYCAARVQAIYRYDYWGQGTQVTVSS	high polyreactivity
QVQLEESGGGLVQAGGSLRLSCAASGLTFPSNAMGWYRQATGKERALVASISKRGGRTYYADSVKGRFTISRDNAKHTVYLQMNSLKPEDTAVYDCATPYAYPGSVQYAGYNYWGQGTQVTVSS	high polyreactivity
QVQLVESGGGLVQAGGSLRLSCAASGSIFEPNAMVWYRQAPGKERELVAVISIDGITYYADSVKGRFTISRDNAKNSVYLQMNSLKPEDTAVYYCAAYLGQGESYGAYDYWGQGTQVTVSS	low polyreactivity
QVQLVESGGGLVQAGGSLRLSCAASGIIFTTNAMGWYRQAPGKERELVATITSGGGTYYADSVKGRFTISRDNAKNTVYLQMNSLKPVDTAVYYCAATPGWGPWIFDHSYVDFDYWGQGTQVTVSS	low polyreactivity
QVQLVESGGGLVQAGGSLRLSCPASGSIFYENAMGWYRQAPGKARELVAAISRSGGSTYYADSVKGRFTISRDNAKNTVYLQMNSLKPEDTAVYYCNTEGGVIRRYWYDYWGQGTQVTVSS	low polyreactivity
QVQLVESGGVLVQAGGSLRLSCAASGSISYSYAMGWYRQAPGKERELVAAITWGGDSTYYADSVKGRFTISRDNAKNTVYLQMNSLKPEDTAVYYCAADLRFTYPVYRAGGGYDYWGQGTQVTVSS	low polyreactivity
QVQLVESGGGLVQAGGSLRLSCAASGRIQYNAMGWYRQAPGKEREFVAAISWSGGTTYYADSVKGRFTISRDNAKNTVYLQMNSLKPEDTAVYYCATPYTHWGQGTQVTVSS	high polyreactivity
